This is an account of results in patent publication US7285703B2, “Plant like starches and the method of making them in hosts” (BASF Plant Science GmbH, priority 1998, dated 2007).

One may read the Km as the concentration of substrate that gives half-maximal velocity.

The test system of one data set is maize starch synthases. Put plainly: Expression of maize starch synthases in Escherichia coli BL21 (DE3): specific activity. The class given is biochemical. The note with it: 25° C., 5 mg/mL glycogen as primer.
Substrate in data set [1]: Nc1ncnc2c1ncn2[C@@H]1O[C@H](COP(=O)(O)OP(=O)(O)O[C@H]2O[C@H](CO)[C@@H](O)[C@H](O)[C@H]2O)[C@@H](O)[C@H]1O
Briefly: ADPGlc kinetics of starch synthase SSIIa-1. It is filed as biochemical, maize. The note with it: other: amylopectin as primer, −citrate, 27° C. The source says: FIG. 59. SSIIa-1 and SSIIa-2 construct diagram. Two forms of SSIIa were constructed in the pET expression system. pExs3c encodes SSIIa-1, the putative full length maize SSIIa which has the N-terminal sequence AEAEAGGK (SEQ ID NO:68). […] A depiction of the waxy gene, encoding GBSS which has the N-terminal sequence ASAGMNVV (SEQ ID NO:67), is also included for comparison. The amino acid motif KTGGL (SEQ ID NO:10), the putative binding site for ADPGlc, is indicated by the triangles. The KTGGL (SEQ ID NO:10) motif is located 18 amino acids from the N-terminus in GBSS, while the motif is 194 amino acids from the N-terminus in maize SSIIa.
5 mL of supernatant were used to assay STS and SBE activities as previously described (Preiss) with minor modification. […] […] The unincorporated [^14C]-ADPGlc was separated with Dowex anion exchange column (200-400 mesh, Sigma Chemical Co.). One unit of activity is defined as 1 nmol Glc incorporated into the a-glucan per min at 25° C. SBE activity was determined by phosphorylase stimulation assay. One unit of activity is defined as 1 mmol Glc incorporated into the a-glucan per min at. 30° C. […]

B1: pEXS-wx: maize GBSS (waxy), N-terminus ASAGMNVVFV, expressed from this plasmid in E. coli BL21 (DE3) (protein, UniProt P04713 73-605, looked up)
Granule-bound starch synthase …: ASAGMNVVFVGAEMAPWSKTGGLGDVLGGLPPAMAANGHRVMVVSPRYDQYKDAWDTSVVSEIKMGDGYETVRFFHCYKRGVDRVFVDHPLFLERVWGKTEEKIYGPVAGTDYRDNQLRFSLLCQAALEAPRILSLNNNPYFSGPYGEDVVFVCNDWHTGPLSCYLKSNYQSHGIYRDAKTAFCIHNISYQGRFAFSDYPELNLPERFKSSFDFIDGYEKPVEGRKINWMKAGILEADRVLTVSPYYAEELISGIARGCELDNIMRLTGITGIVNGMDVSEWDPSRDKYIAVKYDVSTAVEAKALNKEALQAEVGLPVDRNIPLVAFIGRLEEQKGPDVMAAAIPQLMEMVEDVQIVLLGTGKKKFERMLMSAEEKFPGKVRAVVKFNAALAHHIMAGADVLAVTSRFEPCGLIQLQGMRYGTPCACASTGGLVDTIIEGKTGFHMGRLSVDCNVVEPADVKKVATTLQRAIKVVGTPAYEEMVRNCMIQDLSWKGPAKNWENVLLSLGVAGGEPGVEGEEIAPLAKENVAAP
modifications: expressed in E. coli
With B1, the “Specific Activities” value in the data set with maize starch synthases is given as 0.033 units/mg Protein.

B2: maize starch synthase SSIIa-1, putative full length SSIIa (669 amino acids), N-terminus AEAEAGGK (SEQ ID NO:68) (Zea mays) (protein)
chain: AEAEAGGKDAPPERSGDAARLPRARRNAVSKRRDPLQPVGRYGSATGNTARTGAASCQNAALADVEIVEIKSIVAAPPTSIVKFPGRGLQDDPSLWDIAPETVLPAPKPLHESPAVDGDSNGIAPPTVEPLVQEATWDFKKYIGFDEPDEAKDDSRVGADDAGSFEHYGTMILGLCGENVMNVIVVAAECSPWCKTGGLGDVVGALPKALARRGHRVMVVVPRYGDYVEAFDMGIRKYYKAAGQDLEVNYFHAFIDGVDFVFIDASFRHRQDDIYGGSRQEIMKRMILFCKVAVEVPWHVPCGGVCYGDGNLVFIAMNWHTALLPVYLKAYYRDHGLMQYTRSVLVIHNIGHQGRGPVHEFPYMDLLNTNLQHFELYDPVGGEHANIFAACVLKMADRVVTVSRGYLWELKTVEGGWGLHDIIRSNDWKINGIRERIDHQEWNPKVDVHLRSDGYTNYSLETLDAGKRQCKAALQRDVGLEVRDDVPLLGFIGRLDGQKGVDIIGDAMPWIAGQDVQLVMLGTGPPDLERMLQHLEREHPNKVRGWVGFSVLMVHRITPGASVLVMPSRFAGGLNQLYAMAYGTVPVVHAVGGLRDTVAPFDPFGDAGLGWTFDRAEANKLIEVLSHCLDTYRNYEESWKSLQARGMSQNLSWDHAAELYEDVLVKYQW
With B2, the Km in data set [1] is 460 ± 60 µM.
